Test results taken from paper PMC12273574, “Biochemical and structural characterization of a GNAT superfamily protein acetyltransferase from Helicobacter pylori” (The Journal of Biological Chemistry, 2025).

How the values were obtained:
Experiment in all cases: purified protein
[1] = substrate: CC(=O)NCCCC[C@H](N)C(=O)O; conditions: 14C-ACO, 800 nM enzyme; Nα-amino group acetylated; unit μM as printed beside mM for the Nα-acetyl isomer
[2] = substrate: CC(=O)SCCNC(=O)CCNC(=O)[C@H](O)C(C)(C)COP(=O)(O)OP(=O)(O)OC[C@H]1O[C@@H](n2cnc3c(N)ncnc32)[C@H](O)[C@@H]1OP(=O)(O)O; conditions: 50 mM lysine, 5-50 μM 14C-ACO, 800 nM enzyme, pH 8.0, 30 °C; labelled compound; pH 8.0; 30.0 °C
[3] = substrate: NCCCC[C@H](N)C(=O)O; conditions: 50 μM 14C-ACO, 1-50 mM lysine, 800 nM enzyme, pH 8.0, 30 °C; pH 8.0; 30.0 °C

B1: HP0935 (Helicobacter pylori 26695) (protein)
chain: MTIKVFSPKYPTELEEFYAERIADNPLGFIQRLDLLPSISGFVQKLREHGGEFFEMREGNKLIGICGLNPINQTEAELCKFHINSAYQSQGLGQKLYESVEKYAFIKGYTKISLHVSKSQIKACNLYQKLGFVHIKEEDCVVELGEETLIFPTLFMEKILS
Km [1]: 26.71 µM | Km [2]: 21.44 µM | Km [3]: 31310 µM
